Patent publication US20100209436

Legend:
[1] = target: T1, human OPA1 splice variant 8 (A210V polymorphism)
T1 chain: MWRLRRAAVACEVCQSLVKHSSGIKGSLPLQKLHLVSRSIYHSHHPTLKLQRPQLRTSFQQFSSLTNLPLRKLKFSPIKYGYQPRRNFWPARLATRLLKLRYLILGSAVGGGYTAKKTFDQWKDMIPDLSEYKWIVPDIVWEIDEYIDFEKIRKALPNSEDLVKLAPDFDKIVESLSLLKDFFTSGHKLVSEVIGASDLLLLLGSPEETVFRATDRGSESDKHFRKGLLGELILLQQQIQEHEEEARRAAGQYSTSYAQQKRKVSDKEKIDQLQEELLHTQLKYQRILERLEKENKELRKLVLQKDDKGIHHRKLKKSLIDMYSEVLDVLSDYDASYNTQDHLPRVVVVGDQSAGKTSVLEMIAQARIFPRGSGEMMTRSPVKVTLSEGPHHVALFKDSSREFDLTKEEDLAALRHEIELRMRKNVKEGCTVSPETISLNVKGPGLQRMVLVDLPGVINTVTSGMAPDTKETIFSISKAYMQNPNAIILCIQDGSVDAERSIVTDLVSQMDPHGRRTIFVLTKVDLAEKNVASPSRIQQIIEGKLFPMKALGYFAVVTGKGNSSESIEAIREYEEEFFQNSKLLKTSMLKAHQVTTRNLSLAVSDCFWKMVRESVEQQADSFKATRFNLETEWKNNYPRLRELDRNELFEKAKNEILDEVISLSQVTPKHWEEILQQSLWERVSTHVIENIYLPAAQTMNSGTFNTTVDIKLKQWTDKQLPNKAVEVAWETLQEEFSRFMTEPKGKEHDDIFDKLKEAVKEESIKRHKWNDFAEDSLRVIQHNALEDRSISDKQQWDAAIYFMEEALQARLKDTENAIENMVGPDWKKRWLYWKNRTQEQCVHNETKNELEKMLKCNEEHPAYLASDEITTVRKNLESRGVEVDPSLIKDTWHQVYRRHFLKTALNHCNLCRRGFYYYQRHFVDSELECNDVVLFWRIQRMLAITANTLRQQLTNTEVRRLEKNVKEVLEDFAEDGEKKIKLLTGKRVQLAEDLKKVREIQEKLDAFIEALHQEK

[2] = target: T2, human OPA1 splice variant 7
T2 chain: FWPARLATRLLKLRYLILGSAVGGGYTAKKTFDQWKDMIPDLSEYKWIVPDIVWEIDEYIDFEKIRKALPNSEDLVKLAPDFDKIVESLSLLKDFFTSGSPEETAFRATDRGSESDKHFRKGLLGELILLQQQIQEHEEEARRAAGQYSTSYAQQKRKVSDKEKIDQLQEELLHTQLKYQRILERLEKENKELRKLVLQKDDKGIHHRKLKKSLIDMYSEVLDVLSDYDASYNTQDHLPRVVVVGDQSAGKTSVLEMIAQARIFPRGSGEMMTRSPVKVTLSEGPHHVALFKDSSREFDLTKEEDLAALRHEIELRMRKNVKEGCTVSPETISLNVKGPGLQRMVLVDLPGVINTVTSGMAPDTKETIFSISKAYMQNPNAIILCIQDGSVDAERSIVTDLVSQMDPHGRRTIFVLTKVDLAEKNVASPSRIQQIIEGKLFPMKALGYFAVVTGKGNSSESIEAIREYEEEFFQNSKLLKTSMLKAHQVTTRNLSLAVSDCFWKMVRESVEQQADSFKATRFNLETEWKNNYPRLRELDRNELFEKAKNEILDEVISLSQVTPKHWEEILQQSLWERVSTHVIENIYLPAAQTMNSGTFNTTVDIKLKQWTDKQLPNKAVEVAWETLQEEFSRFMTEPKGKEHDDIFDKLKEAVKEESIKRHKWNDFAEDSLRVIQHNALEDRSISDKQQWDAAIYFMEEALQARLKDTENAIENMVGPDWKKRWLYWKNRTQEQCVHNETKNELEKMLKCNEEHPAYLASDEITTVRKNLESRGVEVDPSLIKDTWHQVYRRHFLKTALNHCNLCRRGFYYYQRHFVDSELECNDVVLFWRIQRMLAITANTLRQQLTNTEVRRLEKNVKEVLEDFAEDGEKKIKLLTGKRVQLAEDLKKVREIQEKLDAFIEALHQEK

[3] = target: T3, human OPA1 splice variant 4
T3 chain: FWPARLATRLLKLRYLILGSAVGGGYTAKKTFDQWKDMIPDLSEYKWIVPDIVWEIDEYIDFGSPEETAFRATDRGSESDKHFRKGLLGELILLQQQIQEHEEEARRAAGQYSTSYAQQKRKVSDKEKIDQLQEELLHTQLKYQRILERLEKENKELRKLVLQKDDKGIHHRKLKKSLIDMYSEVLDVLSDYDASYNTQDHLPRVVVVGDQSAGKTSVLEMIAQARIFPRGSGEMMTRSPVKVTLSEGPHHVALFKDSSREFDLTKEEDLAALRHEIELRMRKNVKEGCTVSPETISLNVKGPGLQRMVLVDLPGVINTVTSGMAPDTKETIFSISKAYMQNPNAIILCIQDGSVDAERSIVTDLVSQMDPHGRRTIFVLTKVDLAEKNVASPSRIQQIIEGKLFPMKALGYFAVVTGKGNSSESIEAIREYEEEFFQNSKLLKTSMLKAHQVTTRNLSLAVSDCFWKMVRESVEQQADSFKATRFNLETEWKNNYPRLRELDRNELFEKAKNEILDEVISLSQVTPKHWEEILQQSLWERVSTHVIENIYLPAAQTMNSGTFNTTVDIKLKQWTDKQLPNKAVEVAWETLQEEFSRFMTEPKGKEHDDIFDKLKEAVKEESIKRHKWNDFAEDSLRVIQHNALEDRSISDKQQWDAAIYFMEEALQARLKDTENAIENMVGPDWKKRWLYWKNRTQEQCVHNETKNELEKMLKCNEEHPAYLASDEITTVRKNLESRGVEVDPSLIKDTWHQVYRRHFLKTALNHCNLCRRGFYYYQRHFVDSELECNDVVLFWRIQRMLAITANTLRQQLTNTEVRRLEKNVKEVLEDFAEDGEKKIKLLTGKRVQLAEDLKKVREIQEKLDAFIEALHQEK

B1: homo-oligomeric murine Afg3l1 complex (Yta10 (1-61)-Afg3l1 (25-789)-Myc) (protein)
chain: MMMWQRYARGAPRSLTSLSFGKASRISTVKPVLRSRMPVHQRLQTLSGLATRNTIHRSTQIGGCAGSGGTVWSSVRACGIALQGHLGRCSQQLALQGKLTSFSPRLYSKPPRGFEKFFKNKKNRKSASPGNSVPPKKEPKNAGPGGDGGNRGGKGDDFPWWKRMQKGEFPWDDKDFRSLAVLGAGVAAGFLYFYFRDPGKEITWKHFVQYYLARGLVDRLEVVNKQFVRVIPVPGTTSERFVWFNIGSVDTFERNLESAQWELGIEPTNQAAVVYTTESDGSFLRSLVPTLVLVSILLYAMRRGPMGTGRGGRGGGLFSVGETTAKILKNNIDVRFADVAGCEEAKLEIMEFVNFLKNPKQYQDLGAKIPKGAMLTGPPGTGKTLLAKATAGEANVPFITVNGSEFLEMFVGVGPARVRDMFAMARKHAPCILFIDEIDAIGRKRGRGHLGGQSEQENTLNQMLVEMDGFNSSTNVVVLAGTNRPDILDPALTRPGRFDRQIYIGPPDIKGRSSIFKVHLRPLKLDGSLSKDALSRKLAALTPGFTGADISNVCNEAALIAARHLSPSVQERHFEQAIERVIGGLEKKTQVLQPSEKTTVAYHEAGHAVVGWFLEHADPLLKVSIIPRGKGLGYAQYLPREQFLYTREQLFDRMCMMLGGRVAEQLFFGQITTGAQDDLRKVTQSAYAQIVQFGMSEKLGQVSFDFPRQGETMVEKPYSEATAQLIDEEVRCLVRSAYNRTLELLTQCREQVEKVGRRLLEKEVLEKADMIELLGPRPFAEKSTYEEFVEGTGSLEEDTSLPEGLKDWNKGREEGGTERGLQESPV
- OPA1 processing (western blot, Δyta10Δyta12 yeast) [1]: Afg3l1 and Afg3l2 complexes mediated processing of OPA1 splice variants 4 and 8 in a similar manner
- OPA1 processing (western blot, Δyta10Δyta12 yeast) [2]: expression of each of the murine subunits, Afg3l2 or Afg3l1, in Δyta10Δyta12 cells promoted OPA1 processing; the isoform S4 predominantly accumulated in the presence of Afg3l1
- OPA1 processing (western blot, Δyta10Δyta12 yeast) [3]: Afg3l1 and Afg3l2 complexes mediated processing of OPA1 splice variants 4 and 8 in a similar manner

B2: murine paraplegin expressed alone (Yta10 (1-61)-paraplegin (44-781)) (protein)
chain: MMMWQRYARGAPRSLTSLSFGKASRISTVKPVLRSRMPVHQRLQTLSGLATRNTIHRSTQIAARGTPVGPAAAGGHAPQSLLLRILTPSFEGISGLLLKQHIVPNAVRLWPLSGSTLYFNTSRMKQKNKDNDKPKGKTPEDDEEEKRRKEREDQMYRERLRTLFIIALVMSLLNSLSTSGGSISWADFVNEMLAKGEVQRVQVVPESDVVEVYLHPGAVVFGRPRLALMYRMQVANIDKFEEKLRAAEDELNIESKDRIPVSYKRTGFFGNALYALGMTAVGLAILWYVFRLAGMTGREGGFSAFNQLKMARFTIVDGKTGKGVSFQDVAGMHEAKLEVREFVDYLKSPERFLQLGAKVPKGALLLGPPGCGKTLLAKAVATEAQVPFLAMAGPEFVEVIGGLGAARVRSLFKEARARAPCIVYIDEIDAVGKKRSTSMSGFSNTEEEQTLNQLLVEMDGMGTTDHVIVLASTNRADVLDNALMRPGRLDRHVFIDLPTLQERREIFEQHLKGLKLTQPSSFYSQRLAELTPGFSGADIANICNEAALHAAREGHTSVHTFNFEYAVERVIAGTAKKSKILSKEEQRVVAFHESGHALVGWLLEHTEAVMKVSIAPRTNAALGFSQMLPRDQYLFTKEQLFERMCMALGGRAAEAISFSRVTSGAQDDLRKVTRIAYSMVKQFGMAPSIGPVSFPEAQEGLMGIGRRPFSQGLQQMMDHEAKLLVAKAYRHTEKVLLDNLDKLQALANALLEKEVINYEDIEALIGPPPHGPKKMIAPQKWIDAEKERQASGEEEAPAP
- OPA1 processing (western blot, Δyta10Δyta12 yeast) [2]: Cleavage of OPA1 upon expression of paraplegin alone was not observed

B3: yeast m-AAA protease (subunits Yta10 and Yta12) (protein)
chain 1: MMMWQRYARGAPRSLTSLSFGKASRISTVKPVLRSRMPVHQRLQTLSGLATRNTIHRSTQIRSFHISWTRLNENRPNKEGEGKNNGNKDNNSNKEDGKDKRNEFGSLSEYFRSKEFANTMFLTIGFTIIFTLLTPSSNNSGDDSNRVLTFQDFKTKYLEKGLVSKIYVVNKFLVEAELVNTKQVVSFTIGSVDIFEEQMDQIQDLLNIPPRDRIPIKYIERSSPFTFLFPFLPTIILLGGLYFITRKINSSPPNANGGGGGGLGGMFNVGKSRAKLFNKETDIKISFKNVAGCDEAKQEIMEFVHFLKNPGKYTKLGAKIPRGAILSGPPGTGKTLLAKATAGEANVPFLSVSGSEFVEMFVGVGASRVRDLFTQARSMAPSIIFIDEIDAIGKERGKGGALGGANDEREATLNQLLVEMDGFTTSDQVVVLAGTNRPDVLDNALMRPGRFDRHIQIDSPDVNGRQQIYLVHLKRLNLDPLLTDDMNNLSGKLATLTPGFTGADIANACNEAALIAARHNDPYITIHHFEQAIERVIAGLEKKTRVLSKEEKRSVAYHEAGHAVCGWFLKYADPLLKVSIIPRGQGALGYAQYLPPDQYLISEEQFRHRMIMALGGRVSEELHFPSVTSGAHDDFKKVTQMANAMVTSLGMSPKIGYLSFDQNDGNFKVNKPFSNKTARTIDLEVKSIVDDAHRACTELLTKNLDKVDLVAKELLRKEAITREDMIRLLGPRPFKERNEAFEKYLDPKSNTEPPEAPAATN
chain 2: MLLLSWSRIATKVVRRPVRFRSYYGLTHIKSLHTQYRLLNRLQENKSGNKNEDNNEDAKLNKEIPTDEEVEAIRKQVEKYIEQTKNNTIPANWKEQKRKIDESIRRLEDAVLKQESNRIQEERKEKEEENGPSKAKSNRTKEQGYFEGNNSRNIPPPPPPPPPKPPLNDPSNPVSKNVNLFQIGLTFFLLSFLLDLLNSLEEQSEITWQDFREKLLAKGYVAKLIVVNKSMVKVMLNDNGKNQADNYGRNFYYFTIGSIDSFEHKLQKAQDELDIDKDFRIPVLYVQEGNWAKAMFQILPTVLMIAGIIWLTRRSAQAAGGSRGGIFGLSRSKAKKFNTETDVKIKFKDVAGCDEAKEEIMEFVSFLKEPSRYEKMGAKIPRGAILSGPPGTGKTLLAKATAGEAGVPFYFVSGSEFVEMFVGVGAARVRDLFKTARENAPSIVFIDEIDAIGKARQKGNFSGANDERENTLNQMLVEMDGFTPADHVVVLAGTNRPDILDKALLRPGRFDRHINIDKPELEGRKAIFAVHLHHLKLAGEIFDLKNRLAALTPGFSGADIANVCNEAALIAARSDEDAVKLNHFEQAIERVIGGVERKSKLLSPEEKKVVAYHEAGHAVCGWYLKYADPLLKVSIIPRGQGALGYAQYLPGDIFLLTEQQLKDRMTMSLGGRVSEELHFPSVTSGASDDFKKVTSMATAMVTELGMSDKIGWVNYQKRDDSDLTKPFSDETGDIIDSEVYRIVQECHDRCTKLLKEKAEDVEKIAQVLLKKEVLTREDMIDLLGKRPFPERNDAFDKYLNDYETEKIRKEEEKNEKRNEPKPSTN
- OPA1 processing (western blot, yeast deletion strains) [2]: small isoforms did not accumulate in cells lacking the yeast m-AAA protease subunits Yta10 or Yta12
